# Results as given in article PMC3319151 (Journal of Molecular Biology, 2009).
# Where no end group is shown, it is not given here. The star is where a group is joined. 5FAM = O=C1OC2(c3ccc(O)cc3Oc3cc(O)ccc32)c2ccc(C(=O)*)cc21
# T1: GST-CA150 FF1-3 (human, UniProt O14776 661-845)
# T1 sequence: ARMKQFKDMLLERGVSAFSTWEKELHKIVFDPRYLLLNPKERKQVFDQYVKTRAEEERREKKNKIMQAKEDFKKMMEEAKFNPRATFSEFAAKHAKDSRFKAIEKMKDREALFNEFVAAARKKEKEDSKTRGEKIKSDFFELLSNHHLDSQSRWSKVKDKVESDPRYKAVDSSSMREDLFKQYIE
# T2: CA150 FF1-3 wild-type (human, UniProt O14776 661-845)
# T2 sequence: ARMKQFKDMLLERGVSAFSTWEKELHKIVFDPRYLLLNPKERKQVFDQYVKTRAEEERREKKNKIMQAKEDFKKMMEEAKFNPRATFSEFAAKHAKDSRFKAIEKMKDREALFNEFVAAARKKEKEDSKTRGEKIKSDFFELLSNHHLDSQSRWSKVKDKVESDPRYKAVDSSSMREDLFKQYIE
# T3: CA150 FF1-3 (human CA150 residues 661-845), GST cleaved off (human, UniProt O14776 661-845)
# T3 sequence: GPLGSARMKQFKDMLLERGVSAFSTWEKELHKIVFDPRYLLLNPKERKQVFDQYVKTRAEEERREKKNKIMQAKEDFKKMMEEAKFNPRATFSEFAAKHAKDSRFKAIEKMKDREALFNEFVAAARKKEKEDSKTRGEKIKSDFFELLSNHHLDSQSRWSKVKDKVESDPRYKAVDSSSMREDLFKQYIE
# Tests used:
# [1] = target: (FAM)-AWFHVEED peptide; test: fluorescence polarisation
# [2] = target: WFHVEED peptide (synthetic construct); test: fluorescence polarization; conditions: cited from earlier work
# [3] = target: T1, GST-CA150 FF1-3; test: fluorescence polarization
# [4] = target: T2, CA150 FF1-3 wild-type; test: fluorescence polarization
# [5] = target: T3, CA150 FF1-3 (human CA150 residues …); test: fluorescence polarisation
# Chain of CA150 (GST-FF1-3) FF1-3 (O14776 659-846): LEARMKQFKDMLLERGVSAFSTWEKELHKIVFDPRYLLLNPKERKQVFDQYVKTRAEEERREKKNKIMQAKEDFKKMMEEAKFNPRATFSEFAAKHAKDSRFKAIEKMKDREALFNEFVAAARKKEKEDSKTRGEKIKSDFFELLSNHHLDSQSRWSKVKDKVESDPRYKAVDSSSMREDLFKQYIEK
# Chain of GST alone (P08515 2-218): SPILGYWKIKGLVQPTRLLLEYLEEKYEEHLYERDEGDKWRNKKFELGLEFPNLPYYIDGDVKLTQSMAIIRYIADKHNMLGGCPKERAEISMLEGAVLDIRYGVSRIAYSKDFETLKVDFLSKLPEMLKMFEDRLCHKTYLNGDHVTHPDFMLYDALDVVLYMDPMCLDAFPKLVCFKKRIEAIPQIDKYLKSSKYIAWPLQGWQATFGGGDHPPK
molecule,measurement,setting,value
GST alone,Kd,[1],> 740 µM
CA150 (GST-FF1-3) FF1-3 (from UniProt O14776),Kd,[2],48 µM
MATa1/MATalpha2 duplex of Ke et al. (dsDNA) DNA 1: ACATGTAAAAATTTACATCA DNA 2: TTGATGTAAATTTTTACATG,Kd,[3],0.52 ± 0.06 µM
same,Kd,[4],3.87 ± 0.31 µM
5FAM-AWFHVEED [(FAM)-AWFHVEED peptide],Kd,[5],> 400 µM
